Experimental data: publication PMC3249508 (Journal of Molecular Biology, 2011)
Where two headings read alike, the source gives them in different places.

T1: DDX1 (1–428) (human, UniProt Q92499 1-428)
T1 sequence: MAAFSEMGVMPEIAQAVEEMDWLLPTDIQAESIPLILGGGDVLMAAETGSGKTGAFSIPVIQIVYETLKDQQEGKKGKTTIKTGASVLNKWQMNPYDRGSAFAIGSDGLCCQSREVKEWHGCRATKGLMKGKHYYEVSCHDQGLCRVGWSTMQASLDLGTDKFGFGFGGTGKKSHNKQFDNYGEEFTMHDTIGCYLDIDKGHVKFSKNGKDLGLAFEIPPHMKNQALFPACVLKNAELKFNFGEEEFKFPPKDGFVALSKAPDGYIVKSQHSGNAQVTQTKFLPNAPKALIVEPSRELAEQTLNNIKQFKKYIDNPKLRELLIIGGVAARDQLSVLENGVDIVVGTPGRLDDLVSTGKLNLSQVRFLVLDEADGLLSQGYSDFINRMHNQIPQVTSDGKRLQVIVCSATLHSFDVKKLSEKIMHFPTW

B1: recombinant full-length human DDX1 (enzyme)
chain: MAAFSEMGVMPEIAQAVEEMDWLLPTDIQAESIPLILGGGDVLMAAETGSGKTGAFSIPVIQIVYETLKDQQEGKKGKTTIKTGASVLNKWQMNPYDRGSAFAIGSDGLCCQSREVKEWHGCRATKGLMKGKHYYEVSCHDQGLCRVGWSTMQASLDLGTDKFGFGFGGTGKKSHNKQFDNYGEEFTMHDTIGCYLDIDKGHVKFSKNGKDLGLAFEIPPHMKNQALFPACVLKNAELKFNFGEEEFKFPPKDGFVALSKAPDGYIVKSQHSGNAQVTQTKFLPNAPKALIVEPSRELAEQTLNNIKQFKKYIDNPKLRELLIIGGVAARDQLSVLENGVDIVVGTPGRLDDLVSTGKLNLSQVRFLVLDEADGLLSQGYSDFINRMHNQIPQVTSDGKRLQVIVCSATLHSFDVKKLSEKIMHFPTWVDLKGEDSVPDTVHHVVVPVNPKTDRLWERLGKSHIRTDDVHAKDNTRPGANSPEMWSEAIKILKGEYAVRAIKEHKMDQAIIFCRTKIDCDNLEQYFIQQGGGPDKKGHQFSCVCLHGDRKPHERKQNLERFKKGDVRFLICTDVAARGIDIHGVPYVINVTLPDEKQNYVHRIGRVGRAERMGLAISLVATEKEKVWYHVCSSRGKGCYNTRLKEDGGCTIWYNEMQLLSEIEEHLNCTISQVEPDIKVPVDEFDGKVTYGQKRAAGGGSYKGHVDILAPTVQELAALEKEAQTSFLHLGYLPNQLFRTF
B2: Alexa-488-labeled HIV-1 Rev protein (natural protein)
chain: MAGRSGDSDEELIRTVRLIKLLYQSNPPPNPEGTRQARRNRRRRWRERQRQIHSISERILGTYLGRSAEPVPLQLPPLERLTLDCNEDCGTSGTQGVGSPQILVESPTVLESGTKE
modifications: Alexa-488 label (site not stated)

Tests used:
SEC = molecular target: the molecule itself; test: SEC
[1] = molecular target: B1; test: fluorescence polarisation
[2] = molecular target: B1; test: fluorescence polarisation; remark: listed apart in the source
[3] = molecular target: B1; test: fluorescence polarisation; remark: listed apart in the source
DDX1 (1–428) = molecular target: T1, DDX1 (1–428); test: fluorescence polarisation
bovine serum albumin = bovine serum albumin (bovine, UniProt P02769 25-607); test: fluorescence polarisation
Chain of bovine serum albumin (P02769 25-607): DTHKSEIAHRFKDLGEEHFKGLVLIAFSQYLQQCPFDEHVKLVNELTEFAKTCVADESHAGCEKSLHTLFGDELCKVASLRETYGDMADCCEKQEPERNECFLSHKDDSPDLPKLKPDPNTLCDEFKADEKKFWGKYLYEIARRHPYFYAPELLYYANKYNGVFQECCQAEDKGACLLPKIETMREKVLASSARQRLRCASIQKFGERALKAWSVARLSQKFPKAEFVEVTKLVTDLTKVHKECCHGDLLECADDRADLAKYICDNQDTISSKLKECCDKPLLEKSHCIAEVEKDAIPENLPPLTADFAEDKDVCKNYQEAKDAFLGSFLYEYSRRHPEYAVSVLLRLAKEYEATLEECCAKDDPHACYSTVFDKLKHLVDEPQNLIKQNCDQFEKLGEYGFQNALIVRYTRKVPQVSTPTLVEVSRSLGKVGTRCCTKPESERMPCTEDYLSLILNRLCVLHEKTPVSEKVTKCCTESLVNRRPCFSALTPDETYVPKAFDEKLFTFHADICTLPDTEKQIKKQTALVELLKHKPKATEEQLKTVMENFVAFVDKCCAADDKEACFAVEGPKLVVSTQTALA

Binder	binding result (SEC)	Kd [1]	Kd [2]	Kd [3]	Kd (DDX1 (1–428))	Kd (bovine serum albumin)
B1	binds	–	–	–	–	–
B2	–	14.7 nM	53 nM	36 nM	43 nM	> 500 nM
